For the series, the system named is Escherichia coli TOP10. The experiment in a line: shrunken log2 fold change of peptide-encoding DNA abundance (4.5 h post-induction vs induction); higher = less antimicrobial activity (less host growth inhibition). Conditions: time post-induction: 4.5 h; library: site-saturation at positions 5, 18, 19, 20.
For RRIRTRPPRLPRPRPRPLCFPRP, the “shrunken log2 fold change” value is -0.326. With RRIRIRPPRLPRPRPRPVQYPRP, the “shrunken log2 fold change” value was -0.106. Take RRIRDRPPRLPRPRPRPIWCPRP: the “shrunken log2 fold change” value was -0.0176. As for RRIRPRPPRLPRPRPRPVHMPRP, the “shrunken log2 fold change” value came out at 0.215. Then RRIRHRPPRLPRPRPRPVMCPRP, with -0.175. Regarding RRIRKRPPRLPRPRPRPWRMPRP, the “shrunken log2 fold change” value is 0.0773.

Take RRIRSRPPRLPRPRPRPVLWPRP: the “shrunken log2 fold change” value came out at 0.657. For RRIRMRPPRLPRPRPRPARMPRP, the “shrunken log2 fold change” value came out at 0.888. With RRIRVRPPRLPRPRPRPTYNPRP, the “shrunken log2 fold change” value is -0.769. In the case of RRIRVRPPRLPRPRPRPTEVPRP, the “shrunken log2 fold change” value came to 0.0934. Consider RRIRERPPRLPRPRPRPITHPRP, for which the “shrunken log2 fold change” value was -0.527.

With RRIRQRPPRLPRPRPRPDKDPRP, the “shrunken log2 fold change” value was -0.0597. For RRIRLRPPRLPRPRPRPYKNPRP the value was -0.631; for RRIRNRPPRLPRPRPRPQGYPRP, -0.667. Regarding RRIRERPPRLPRPRPRPHQEPRP, the “shrunken log2 fold change” value stood at 0.0187. For RRIRARPPRLPRPRPRPSQHPRP, the “shrunken log2 fold change” value is -0.117. Then RRIRMRPPRLPRPRPRPRVGPRP, with 1.02; and RRIRWRPPRLPRPRPRPKRKPRP, with 0.502. For RRIRDRPPRLPRPRPRPCRDPRP, the “shrunken log2 fold change” value was -0.106. For RRIRQRPPRLPRPRPRPDIGPRP the value was -0.0932; for RRIRGRPPRLPRPRPRPDYTPRP, 0.343. Regarding RRIRLRPPRLPRPRPRPLRKPRP, the “shrunken log2 fold change” value is 0.183.

For RRIRARPPRLPRPRPRPTFPPRP, the “shrunken log2 fold change” value worked out at 0.308. Regarding RRIRYRPPRLPRPRPRPCGQPRP, the “shrunken log2 fold change” value is -0.0335. Regarding RRIRSRPPRLPRPRPRPPMYPRP, the “shrunken log2 fold change” value was -0.549. As to RRIRFRPPRLPRPRPRPSNVPRP, the “shrunken log2 fold change” value was -0.989. For the sequence RRIRNRPPRLPRPRPRPYPIPRP, the “shrunken log2 fold change” value is -0.0592. With RRIRCRPPRLPRPRPRPPRFPRP, the “shrunken log2 fold change” value was determined as 1.34. For the sequence RRIRWRPPRLPRPRPRPDHEPRP, the “shrunken log2 fold change” value was -0.0396.

On to RRIRWRPPRLPRPRPRPAVRPRP, for which the “shrunken log2 fold change” value was -0.0873.

Take RRIRWRPPRLPRPRPRPVKQPRP: the “shrunken log2 fold change” value was -0.092. Take RRIRYRPPRLPRPRPRPDNVPRP: the “shrunken log2 fold change” value was -0.0165. Regarding RRIRFRPPRLPRPRPRPEHHPRP, the “shrunken log2 fold change” value was -0.306. For RRIRRRPPRLPRPRPRPYHWPRP the value was -0.48; for RRIRIRPPRLPRPRPRPEWAPRP, 0.0716; for RRIRWRPPRLPRPRPRPHVIPRP, -0.13. Take RRIRHRPPRLPRPRPRPESAPRP: the “shrunken log2 fold change” value was determined as 0.368.

For the sequence RRIRWRPPRLPRPRPRPWMVPRP, the “shrunken log2 fold change” value turned out to be 0.0468. RRIRNRPPRLPRPRPRPSNMPRP: the “shrunken log2 fold change” value was -0.429. For RRIRHRPPRLPRPRPRPAIDPRP, the “shrunken log2 fold change” value was 0.178. Then RRIRRRPPRLPRPRPRPNYMPRP, with -0.605; and RRIRKRPPRLPRPRPRPMISPRP, with 0.18; and RRIRIRPPRLPRPRPRPEYNPRP, with 0.0781.

Take RRIRMRPPRLPRPRPRPIQPPRP: the “shrunken log2 fold change” value stood at 0.122. Then RRIRYRPPRLPRPRPRPRMMPRP, with 0.0163; and RRIRKRPPRLPRPRPRPIQEPRP, with 0.000523; and RRIRERPPRLPRPRPRPRAVPRP, with 0.264.

Regarding RRIRHRPPRLPRPRPRPRAIPRP, the “shrunken log2 fold change” value amounted to 0.0852. RRIRCRPPRLPRPRPRPPSPPRP: the “shrunken log2 fold change” value worked out at 0.724. Then RRIRSRPPRLPRPRPRPKKNPRP, with 0.267; and RRIRKRPPRLPRPRPRPYCMPRP, with -0.461. RRIRERPPRLPRPRPRPHDAPRP: the “shrunken log2 fold change” value is -0.437. With RRIRNRPPRLPRPRPRPAPQPRP, the “shrunken log2 fold change” value stood at 0.182.

As for RRIRPRPPRLPRPRPRPKMTPRP, the “shrunken log2 fold change” value stood at 0.0519. Turning to RRIRTRPPRLPRPRPRPHTHPRP, the “shrunken log2 fold change” value is -0.873. As for RRIRMRPPRLPRPRPRPITKPRP, the “shrunken log2 fold change” value came to 0.0745. Then RRIRMRPPRLPRPRPRPIVCPRP, with -0.0438; and RRIRNRPPRLPRPRPRPLICPRP, with -0.771. As to RRIRMRPPRLPRPRPRPAWMPRP, the “shrunken log2 fold change” value was 0.189. In the case of RRIRNRPPRLPRPRPRPSPRPRP, the “shrunken log2 fold change” value came out at 0.0772. As to RRIRLRPPRLPRPRPRPWRYPRP, the “shrunken log2 fold change” value was -0.268. In the case of RRIRNRPPRLPRPRPRPQQFPRP, the “shrunken log2 fold change” value was -0.0018. With RRIRPRPPRLPRPRPRPWEWPRP, the “shrunken log2 fold change” value came to 0.0238. Then RRIRSRPPRLPRPRPRPMPSPRP, with -0.194; and RRIRLRPPRLPRPRPRPMCMPRP, with -0.451. With RRIRDRPPRLPRPRPRPPGWPRP, the “shrunken log2 fold change” value is 1.66. Turning to RRIRMRPPRLPRPRPRPIPPPRP, the “shrunken log2 fold change” value was 0.369. In the case of RRIRERPPRLPRPRPRPHCNPRP, the “shrunken log2 fold change” value is -1.07.

Take RRIRSRPPRLPRPRPRPGIPPRP: the “shrunken log2 fold change” value was -0.00461.

Regarding RRIRERPPRLPRPRPRPQEWPRP, the “shrunken log2 fold change” value was -0.021. RRIRYRPPRLPRPRPRPLPEPRP: the “shrunken log2 fold change” value was -0.323. Turning to RRIRYRPPRLPRPRPRPDRTPRP, the “shrunken log2 fold change” value was -0.0309. For RRIRWRPPRLPRPRPRPFTLPRP, the “shrunken log2 fold change” value stood at 3.06. Regarding RRIRFRPPRLPRPRPRPPSYPRP, the “shrunken log2 fold change” value is -0.0274. As for RRIRMRPPRLPRPRPRPCVTPRP, the “shrunken log2 fold change” value came out at 0.0301. For the sequence RRIRDRPPRLPRPRPRPGPQPRP, the “shrunken log2 fold change” value was -0.0494.

On to RRIRCRPPRLPRPRPRPEMNPRP, for which the “shrunken log2 fold change” value is -0.036. For RRIRKRPPRLPRPRPRPHYDPRP, the “shrunken log2 fold change” value turned out to be 0.0324.

On to RRIRARPPRLPRPRPRPDCTPRP, for which the “shrunken log2 fold change” value is 0.27. With RRIRGRPPRLPRPRPRPVYKPRP, the “shrunken log2 fold change” value stood at 0.0688.

As to RRIRHRPPRLPRPRPRPILPPRP, the “shrunken log2 fold change” value was 0.0147. Then RRIRFRPPRLPRPRPRPHNNPRP, with -0.638. Then RRIRCRPPRLPRPRPRPMYLPRP, with -0.464; and RRIRMRPPRLPRPRPRPFRLPRP, with -0.1. Consider RRIRFRPPRLPRPRPRPMCPPRP, for which the “shrunken log2 fold change” value is -0.176. Then RRIRGRPPRLPRPRPRPVCMPRP, with 0.406; and RRIRWRPPRLPRPRPRPDGEPRP, with 0.0237; and RRIRGRPPRLPRPRPRPWKFPRP, with -0.211. Regarding RRIRPRPPRLPRPRPRPGDHPRP, the “shrunken log2 fold change” value was -0.013. Regarding RRIRWRPPRLPRPRPRPRGQPRP, the “shrunken log2 fold change” value was determined as 0.302. Regarding RRIRTRPPRLPRPRPRPQRCPRP, the “shrunken log2 fold change” value is 0.00192. With RRIRCRPPRLPRPRPRPISQPRP, the “shrunken log2 fold change” value was -0.544.

Turning to RRIRFRPPRLPRPRPRPEWIPRP, the “shrunken log2 fold change” value was -0.0219.

On to RRIRVRPPRLPRPRPRPARMPRP, for which the “shrunken log2 fold change” value is 0.425.

With RRIRLRPPRLPRPRPRPYTIPRP, the “shrunken log2 fold change” value is -0.048. As for RRIRGRPPRLPRPRPRPQGTPRP, the “shrunken log2 fold change” value is -0.0716. For RRIRTRPPRLPRPRPRPNNGPRP the value was -0.602. RRIRHRPPRLPRPRPRPAIKPRP: the “shrunken log2 fold change” value was 0.00883. Consider RRIRKRPPRLPRPRPRPGWYPRP, for which the “shrunken log2 fold change” value is -0.0717. Then RRIRGRPPRLPRPRPRPAAKPRP, with 1.02.

Consider RRIRVRPPRLPRPRPRPPRPPRP, for which the “shrunken log2 fold change” value amounted to 0.648. For RRIRGRPPRLPRPRPRPSWRPRP, the “shrunken log2 fold change” value came to 0.477.

On to RRIRQRPPRLPRPRPRPTMIPRP, for which the “shrunken log2 fold change” value amounted to 0.151.

As to RRIRVRPPRLPRPRPRPILWPRP, the “shrunken log2 fold change” value stood at 0.0127. As for RRIRERPPRLPRPRPRPYTDPRP, the “shrunken log2 fold change” value was -0.956. Turning to RRIRWRPPRLPRPRPRPKQMPRP, the “shrunken log2 fold change” value amounted to 0.113. With RRIRLRPPRLPRPRPRPDCQPRP, the “shrunken log2 fold change” value was found to be 0.153. In the case of RRIRNRPPRLPRPRPRPRWMPRP, the “shrunken log2 fold change” value is 0.0606.

With RRIRERPPRLPRPRPRPLHHPRP, the “shrunken log2 fold change” value was -0.458.

Consider RRIRFRPPRLPRPRPRPTTIPRP, for which the “shrunken log2 fold change” value was -0.548.

With RRIRRRPPRLPRPRPRPIKCPRP, the “shrunken log2 fold change” value is -0.17. Turning to RRIRLRPPRLPRPRPRPSGTPRP, the “shrunken log2 fold change” value is -0.114. Take RRIRFRPPRLPRPRPRPYTSPRP: the “shrunken log2 fold change” value was -0.256. RRIRIRPPRLPRPRPRPRGVPRP: the “shrunken log2 fold change” value is 0.0556. Regarding RRIRSRPPRLPRPRPRPTDKPRP, the “shrunken log2 fold change” value was -0.242. Turning to RRIRHRPPRLPRPRPRPSYYPRP, the “shrunken log2 fold change” value is -1.56.

As for RRIRCRPPRLPRPRPRPPFTPRP, the “shrunken log2 fold change” value was -0.15.

On to RRIRLRPPRLPRPRPRPLNAPRP, for which the “shrunken log2 fold change” value is -0.0775.

As to RRIRARPPRLPRPRPRPQQDPRP, the “shrunken log2 fold change” value was 0.108. Then RRIRARPPRLPRPRPRPQDMPRP, with -0.322.

For RRIRLRPPRLPRPRPRPCQNPRP, the “shrunken log2 fold change” value is -0.0404.

Regarding RRIRQRPPRLPRPRPRPDPWPRP, the “shrunken log2 fold change” value is 0.161. Regarding RRIRMRPPRLPRPRPRPNVNPRP, the “shrunken log2 fold change” value amounted to 0.148.

As for RRIRSRPPRLPRPRPRPAFSPRP, the “shrunken log2 fold change” value was -0.145. For RRIRIRPPRLPRPRPRPTILPRP, the “shrunken log2 fold change” value is -0.248.

The record behind these values is the supplement of paper PMC9112550, “Optimization of the antimicrobial peptide Bac7 by deep mutational scanning” (BMC Biology, 2022).
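Further: peptides expressed intracellularly from a pBAD plasmid library in pooled LB shake-flask culture, induced with 0.3% L-arabinose, DNA abundance read by NGS, three biological replicates, DESeq2 with apeglm shrinkage.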
